Results taken from the supplement of paper PMC12042874.
± gives the uncertainty stated by the source.

Experiment: amyloid nucleation score (Sup35N fusion, yeast selection) (log enrichment); library NNK3; higher = more nucleation; inactive = no reads after selection
Summary of the method: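 On medium lacking adenine and uracil, psi-negative yeast expressing peptides of 20 random codons fused to Sup35N were grown 7 days at 30°C after a 24-hour induction with 100 μM copper sulfate. Illumina sequencing of input and output plasmid inserts gave the reads, and sequences under 100 input reads were excluded. The nucleation score is the DiMSum log enrichment of output over input reads, centred on the mode score of non-aggregating sequences.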
With SLNKWVGCRSRIRWDLGTQF the amyloid nucleation score was “inactive”.
For SLPLCWAMAKGSISHRMERY, the amyloid nucleation score was “inactive”.
With SLPWVIF the amyloid nucleation score was “inactive”.
In the case of SLRWLISESAMRVKTMWRGG, the amyloid nucleation score is reported as “inactive”.
For SLSSIGSDFNGGC, the amyloid nucleation score was “inactive”.
With SLSSSWFFNISSNADMPCYN the amyloid nucleation score was “inactive”.
With SLTLGCSDLGKGCREETYAG the amyloid nucleation score was “inactive”.
For SLVEAGMFTQFS, the amyloid nucleation score was “inactive”.
In the case of SMADHAESLNSSGSNRQQLG, the amyloid nucleation score is reported as “inactive”.
In the case of SMAMFIFMITLVCYFKDSPW, the amyloid nucleation score is reported as “inactive”.
For SMDTSTPTIV, the amyloid nucleation score was “inactive”.
In the case of SMDVKHRR, the amyloid nucleation score is reported as “inactive”.
With SMFKLMRP the amyloid nucleation score was “inactive”.
In the case of SMGVFAKRRKGRWNTYSIKA, the amyloid nucleation score is reported as “inactive”.
With SMIKPAIFGYNVMLVPYINC the amyloid nucleation score was “inactive”.
With SMKQMNMQHSSPRNRTDGRR the amyloid nucleation score was “inactive”.
For SMKVEEIICGFAVVYIDTMY, the amyloid nucleation score was 0.256 ± 0.28.
For SMNACSRNGLGMWKVMDLFT, the amyloid nucleation score was “inactive”.
Work on SMNFLLLISMCNLWPSYAAL yielded an amyloid nucleation score of 1.36 ± 0.14.
For SMNFVLLRGGRRMIQQDRVR, the amyloid nucleation score was “inactive”.
With SMPRAEHSDVSCYAHYFSFR the amyloid nucleation score was “inactive”.
For SMSNQSSTFDSLLFRQWLVV, the amyloid nucleation score was “inactive”.
For SMSTN, the amyloid nucleation score was “inactive”.
For SMYDKGMGYTCVKSSVNLFV, the amyloid nucleation score was “inactive”.
With SMYVYPFELVSVDGRLVRTA the amyloid nucleation score was “inactive”.
With SNCFQYECMSWSWDYLHECW the amyloid nucleation score was “inactive”.
In the case of SNCGL, the amyloid nucleation score is reported as 0.832 ± 0.28.
Substance SNDCRVTVTVFSIGRDSYVL has an amyloid nucleation score of 2.28 ± 0.089.
In the case of SNDMRGLVGEEIGFLSWN, the amyloid nucleation score is reported as “inactive”.
With SNDNGTHVSNYRALSSDREK the amyloid nucleation score was “inactive”.
In the case of SNGNMLRSYVSTPCDRGKGS, the amyloid nucleation score is reported as “inactive”.
In the case of SNITSCLNSQRKMDLAFYRV, the amyloid nucleation score is reported as “inactive”.
With SNLVGCKLIHV the amyloid nucleation score was “inactive”.
With SNNLKLAPGSWVPYSDRIHR the amyloid nucleation score was “inactive”.
In the case of SNPHDDSHDVILVFLVLGRC, the amyloid nucleation score is reported as “inactive”.
For SNRGVADLDLRGLWTARE, the amyloid nucleation score was “inactive”.
SNRQSSGISF showed an amyloid nucleation score of -0.784 ± 2.5.
SNRVRMSFLLADVYCNQTEV gave an amyloid nucleation score of -0.183 ± 0.42.
For SNSMPSGNSRMVCCRDPSFP, the amyloid nucleation score was “inactive”.
For SNSMS, the amyloid nucleation score was “inactive”.
For SNSSHRRYYGHVRRNL, the amyloid nucleation score was “inactive”.
For SNTFRTIGS, the amyloid nucleation score was “inactive”.
With SNWEFYDRYTYRRLGLEQKV the amyloid nucleation score was “inactive”.
For SPLSVGEHSEMWLRLVFG, the amyloid nucleation score was “inactive”.
With SPPKAAKCICAISSWSLWWT the amyloid nucleation score was “inactive”.
With SPPSQYSVDQIFHMSWLVYY the amyloid nucleation score was “inactive”.
With SPQFELLDITKPCRT the amyloid nucleation score was “inactive”.
In the case of SPRVSMYMSSQKGLEPWESV, the amyloid nucleation score is reported as “inactive”.
For SPTLRFGRQKFRQCGVKRVS, the amyloid nucleation score was 1.35 ± 0.11.
In the case of SPVRVDWFSKRFSGYVMRTM, the amyloid nucleation score is reported as “inactive”.
With SPYVYRTWFRTLEYCTRDDM the amyloid nucleation score was “inactive”.
In the case of SQCFIY, the amyloid nucleation score is reported as -0.514 ± 0.78.
With SQCGLTHSLVVGGSSVNTHT the amyloid nucleation score was “inactive”.
With SQCRVYN the amyloid nucleation score was “inactive”.
For SQFQGAMMYFCEEMCICFFC, the amyloid nucleation score was 2.01 ± 0.097.
For SQFTFNCTIFNGL, the amyloid nucleation score was 2.65 ± 0.064.
Substance SQKRPMCFSCWTHMVFHSWF has an amyloid nucleation score of -0.257 ± 0.46.
For SQLLYI, the amyloid nucleation score was “inactive”.
With SQVFTVALNVPNNR the amyloid nucleation score was “inactive”.
For SRACSTHCIFEGTWSG, the amyloid nucleation score was “inactive”.
SRCSSGRLCWRFASHSRGTS showed an amyloid nucleation score of -0.826 ± 1.4.
For SRCWGDILPLNIQYLMR, the amyloid nucleation score was “inactive”.
For SRECLRKLDVSNSTRIK, the amyloid nucleation score was -0.097 ± 0.24.
In the case of SRFLLRNCPFLSGHVFTSQT, the amyloid nucleation score is reported as “inactive”.
In the case of SRFLRMASGYWSN, the amyloid nucleation score is reported as “inactive”.
In the case of SRGLFTNGVASFRRVCGLPW, the amyloid nucleation score is reported as “inactive”.
Work on SRITLPDIIMFHCMFNGTDV yielded an amyloid nucleation score of 0.339 ± 0.67.
In the case of SRLNFVCRGGSSAVFRRKAH, the amyloid nucleation score is reported as “inactive”.
With SRMLVSKLWKNMGLVSSAYL the amyloid nucleation score was “inactive”.
In the case of SRNFTRHILHDLHYAGILKA, the amyloid nucleation score is reported as “inactive”.
Substance SRPAYSRRFMLTGDITVIKL has an amyloid nucleation score of 1.66 ± 0.071.
For SRRDYRLGSTVKLVVLGKSF, the amyloid nucleation score was “inactive”.
In the case of SRRKGQVVGCLQTMCCCKVE, the amyloid nucleation score is reported as “inactive”.
With SRRLVKESDDRGCCRGLFWD the amyloid nucleation score was “inactive”.
With SRSDKNHRNVANLNGVWCVT the amyloid nucleation score was “inactive”.
For SRSMDGSVCAFRMDMSSMD, the amyloid nucleation score was “inactive”.
Substance SRVITDVHERVAVGGVVIWD has an amyloid nucleation score of 0.003 ± 0.31.
SRVKDYCSFGLDFKCVCVFL gave an amyloid nucleation score of 2.06 ± 0.094.
With SRVWMITRLFGTMA the amyloid nucleation score was “inactive”.
For SRYFYDADYLFGGHSVAGQI, the amyloid nucleation score was “inactive”.
For SRYQMGYKCFMSWHHTGHFN, the amyloid nucleation score was “inactive”.
With SRYSYVYTSESLYRASVSSV the amyloid nucleation score was “inactive”.
With SSAGYVVYIVMSRS the amyloid nucleation score was 2.65 ± 0.065.
In the case of SSCRDVWWKVVVVPTFTGGV, the amyloid nucleation score is reported as “inactive”.
For SSCRETTLEFAMGGTTVHLQ, the amyloid nucleation score was “inactive”.
For SSDECV, the amyloid nucleation score was “inactive”.
In the case of SSDSYLVRESDKSSEWGTRN, the amyloid nucleation score is reported as “inactive”.
In the case of SSFFMRIVCMFYLIRKVMKC, the amyloid nucleation score is reported as “inactive”.
For SSFYFCFMSCCYGLGFYLEI, the amyloid nucleation score was “inactive”.
In the case of SSGVEAGVSRMMLQ, the amyloid nucleation score is reported as “inactive”.
With SSIVEPQQLTGGPASGRFGE the amyloid nucleation score was “inactive”.
Work on SSLGNSLVMYVVCAWVN yielded an amyloid nucleation score of 0.273 ± 0.37.
For SSLGWFQVSHFRYWNRRCGL, the amyloid nucleation score was “inactive”.
For SSLHARRYGLHLSLLSPARA, the amyloid nucleation score was “inactive”.
With SSLLVRVRIYMGMMLLTIVR the amyloid nucleation score was “inactive”.
In the case of SSLPMGFRSVI, the amyloid nucleation score is reported as “inactive”.
In the case of SSLRLRDMSASENNRGSMPV, the amyloid nucleation score is reported as “inactive”.
For SSNLYMSSFWTSMMTWPTNY, the amyloid nucleation score was “inactive”.
SSNVPFVWCIPLMIAGIVGH gave an amyloid nucleation score of -0.348 ± 0.75.
With SSPRGCKSELPSGLGTYCRV the amyloid nucleation score was “inactive”.
In the case of SSPRYVCWNF, the amyloid nucleation score is reported as “inactive”.
For SSRRPWIIGSMST, the amyloid nucleation score was “inactive”.
With SSRTCK the amyloid nucleation score was “inactive”.
For SSSAF, the amyloid nucleation score was “inactive”.
Work on SSSSIVLDGLTFWLINTVTT yielded an amyloid nucleation score of 0.598 ± 0.21.
In the case of SSSTVYISVLVINHIDGSIR, the amyloid nucleation score is reported as 2.42 ± 0.051.
In the case of SSSYFIALWYFRTTRLSGGL, the amyloid nucleation score is reported as “inactive”.
In the case of SSTLHRQIRRGVTVNELLRG, the amyloid nucleation score is reported as “inactive”.
In the case of SSTNPGIH, the amyloid nucleation score is reported as “inactive”.
With SSTSCTHGYVGMFGFPSVVS the amyloid nucleation score was “inactive”.
In the case of SSVGTAFLYYRKYGICADG, the amyloid nucleation score is reported as “inactive”.
In the case of SSVSSMRRSHYETMMGRTVG, the amyloid nucleation score is reported as “inactive”.
In the case of SSWNTTYMESSVPVGYLFRI, the amyloid nucleation score is reported as “inactive”.
With SSWPTTGRWE the amyloid nucleation score was “inactive”.
Substance SSYLNSVNSCLNDNVSHCCS has an amyloid nucleation score of -0.343 ± 0.68.
With STLCSSCKGFDRMRYILVTR the amyloid nucleation score was 0.274 ± 0.38.
